Test results taken from patent US11053476B2, “Generation of cancer stem cells and use thereof” (EXOSTEM BIOTEC LTD., priority 2016, dated 2021).

Legend:
Format in all cases: cell-based
[1] = system: Sox2; test: Sox2 expression in generated CSCs, factor added to basic protocol
Experimental: (§1) In order to generate CSCs in vitro, both primary differentiated cancer cells (primary glioma cells) as well as cells from a cancer cell line (U87 cells) were obtained. Glioma cells and U87 cells were trypsinized, and washed three times with medium +10% FCS. The cells were then resuspended in medium that was brought to a pH of 6.0 and were placed on a rotator and incubated for 45-90 minutes. The cells were then incubated in medium supplemented with EGF and FGF. The cells were optionally kept in mild hypoxic conditions (2-3% oxygen) during this second incubation and were then plated on bacterial plates.
(§2) Tumorspheres formed on these plates within one week and were removed from the cells that had attached to the dish. The tumorspheres were disaggregated and the cells were re-plated at limiting dilution to generate secondary spheroids. The secondary tumorspheres were then characterized for CSC specific markers, the ability to self-renew and the ability to generate tumors that recapitulate the parental tumors.
Knowing that the basic protocol for generating CSCs (acid, EGF/FGF and two rounds of sphere generation) was successful; several modifications to the protocol were examined. […] Second, a wide range of factors were found, that when supplemented to the EGF and FGF containing media, increased the efficacy of the protocol, either by increasing the number of CSCs produced or by increasing their stemness.

[2] = system: CSCs generated from differentiated cancer cells; test: Self-renewal of CSCs (secondary tumorspheres) generated from differentiated cancer cells, factor added to basic protocol
Experimental: as §1, §2
Knowing that the basic protocol for generating CSCs (acid, EGF/FGF and two rounds of sphere generation) was successful; several modifications to the protocol were examined. […]

[3] = system: differentiated cancer cells; test: Efficacy and penetrance of dedifferentiation with transcription and secreted factors; details: expression in the cells or in their media during second incubation or tumorsphere formation
Experimental: as §1, §2
Lastly, several transcription factors and secreted factors that are known to enhance stemness or cancer progression were introduced into the differentiated cells during the second incubation or during tumorsphere formation.

B1: IL10: anti-inflammatory cytokine (protein, UniProt P22301 19-178, looked up)
Interleukin-10: SPGQGTQSENSCTHFPGNLPNMLRDLRDAFSRVKTFFQMKDQLDNLLLKESLLEDFKGYLGCQALSEMIQFYLEEVMPQAENQDPDIKAHVNSLGENLKTLRLRLRRCHRFLPCENKSKAVEQVKNAFNKLQEKGIYKAMSEFDIFINYIEAYMTMKIRN
- effect on Sox2 expression ([1]; cytokine supplemented to second incubation media, FIG. 4B): no effect
- effect on rate of self-renewal ([2]; cytokine supplemented to second incubation media, FIG. 4A): no effect

B2: CEBP/B: transcription or secreted factor expressed in the cells or in their media (protein, UniProt P17676 1-345, looked up)
CCAAT/enhancer-binding …: MQRLVAWDPACLPLPPPPPAFKSMEVANFYYEADCLAAAYGGKAAPAAPPAARPGPRPPAGELGSIGDHERAIDFSPYLEPLGAPQAPAPATATDTFEAAPPAPAPAPASSGQHHDFLSDLFSDDYGGKNCKKPAEYGYVSLGRLGAAKGALHPGCFAPLHPPPPPPPPPAELKAEPGFEPADCKRKEEAGAPGGGAGMAAGFPYALRAYLGYQAVPSGSSGSLSTSSSSSPPGTPSPADAKAPPTACYAGAAPAPSQVKSKAKKTVDKHSDEYKIRRERNNIAVRKSRDKAKMRNLETQHKVLELTAENERLQKKVEQLSRELSTLRNLFKQLPEPLLASSGHC
- effect on dedifferentiation brought about by the standard protocol [3]: increase the efficacy and penetrance of the dedifferentiation

B3: WNT5A: transcription or secreted factor expressed in the cells or in their media (protein, UniProt P41221 62-380, looked up)
Protein Wnt-5a: IIGAQPLCSQLAGLSQGQKKLCHLYQDHMQYIGEGAKTGIKECQYQFRHRRWNCSTVDNTSVFGRVMQIGSRETAFTYAVSAAGVVNAMSRACREGELSTCGCSRAARPKDLPRDWLWGGCGDNIDYGYRFAKEFVDARERERIHAKGSYESARILMNLHNNEAGRRTVYNLADVACKCHGVSGSCSLKTCWLQLADFRKVGDALKEKYDSAAAMRLNSRGKLVQVNSRFNSPTTQDLVYIDPSPDYCVRNESTGSLGTQGRLCNKTSEGMDGCELMCCGRGYDQFKTVQTERCHCKFHWCCYVKCKKCTEIVDQFVCK
- effect on dedifferentiation brought about by the standard protocol [3]: increase the efficacy and penetrance of the dedifferentiation

B4: PKC epsilon: protein kinase C epsilon; activators or overexpression (protein, UniProt Q02156 1-737, looked up)
Protein kinase C epsilon type: MVVFNGLLKIKICEAVSLKPTAWSLRHAVGPRPQTFLLDPYIALNVDDSRIGQTATKQKTNSPAWHDEFVTDVCNGRKIELAVFHDAPIGYDDFVANCTIQFEELLQNGSRHFEDWIDLEPEGRVYVIIDLSGSSGEAPKDNEERVFRERMRPRKRQGAVRRRVHQVNGHKFMATYLRQPTYCSHCRDFIWGVIGKQGYQCQVCTCVVHKRCHELIITKCAGLKKQETPDQVGSQRFSVNMPHKFGIHNYKVPTFCDHCGSLLWGLLRQGLQCKVCKMNVHRRCETNVAPNCGVDARGIAKVLADLGVTPDKITNSGQRRKKLIAGAESPQPASGSSPSEEDRSKSAPTSPCDQEIKELENNIRKALSFDNRGEEHRAASSPDGQLMSPGENGEVRQGQAKRLGLDEFNFIKVLGKGSFGKVMLAELKGKDEVYAVKVLKKDVILQDDDVDCTMTEKRILALARKHPYLTQLYCCFQTKDRLFFVMEYVNGGDLMFQIQRSRKFDEPRSRFYAAEVTSALMFLHQHGVIYRDLKLDNILLDAEGHCKLADFGMCKEGILNGVTTTTFCGTPDYIAPEILQELEYGPSVDWWALGVLMYEMMAGQPPFEADNEDDLFESILHDDVLYPVWLSKEAVSILKAFMTKNPHKRLGCVASQNGEDAIKQHPFFKEIDWVLLEQKKIKPPFKPRIKTKRDVNNFDQDFTREEPVLTLVDEAIVKQINQEEFKGFSYFGEDLMP
- effect on Sox2 expression ([1]; PKC activation, FIG. 6B): increase Sox2 expression
- effectiveness on Sox2 expression compared with PMA ([1]; PKC activation, FIG. 6B): more effective that PMA

B5: COX2: transcription or secreted factor expressed in the cells or in their media (protein, UniProt P35354 18-604, looked up)
Prostaglandin G/H synthase 2: ANPCCSHPCQNRGVCMSVGFDQYKCDCTRTGFYGENCSTPEFLTRIKLFLKPTPNTVHYILTHFKGFWNVVNNIPFLRNAIMSYVLTSRSHLIDSPPTYNADYGYKSWEAFSNLSYYTRALPPVPDDCPTPLGVKGKKQLPDSNEIVEKLLLRRKFIPDPQGSNMMFAFFAQHFTHQFFKTDHKRGPAFTNGLGHGVDLNHIYGETLARQRKLRLFKDGKMKYQIIDGEMYPPTVKDTQAEMIYPPQVPEHLRFAVGQEVFGLVPGLMMYATIWLREHNRVCDVLKQEHPEWGDEQLFQTSRLILIGETIKIVIEDYVQHLSGYHFKLKFDPELLFNKQFQYQNRIAAEFNTLYHWHPLLPDTFQIHDQKYNYQQFIYNNSILLEHGITQFVESFTRQIAGRVAGGRNVPPAVQKVSQASIDQSRQMKYQSFNEYRKRFMLKPYESFEELTGEKEMSAELEALYGDIDAVELYPALLVEKPRPDAIFGETMVEVGAPFSLKGLMGNVICSPAYWKPSTFGGEVGFQIINTASIQSLICNNVKGCPFTSFSVPDPELIKTVTINASSSRSGLDDINPTVLLKERSTEL
- effect on dedifferentiation brought about by the standard protocol [3]: increase the efficacy and penetrance of the dedifferentiation

B6: RUNX2: transcription or secreted factor expressed in the cells or in their media (protein, UniProt Q13950 1-521, looked up)
Runt-related transcription …: MASNSLFSTVTPCQQNFFWDPSTSRRFSPPSSSLQPGKMSDVSPVVAAQQQQQQQQQQQQQQQQQQQQQQQEAAAAAAAAAAAAAAAAAVPRLRPPHDNRTMVEIIADHPAELVRTDSPNFLCSVLPSHWRCNKTLPVAFKVVALGEVPDGTVVTVMAGNDENYSAELRNASAVMKNQVARFNDLRFVGRSGRGKSFTLTITVFTNPPQVATYHRAIKVTVDGPREPRRHRQKLDDSKPSLFSDRLSDLGRIPHPSMRVGVPPQNPRPSLNSAPSPFNPQGQSQITDPRQAQSSPPWSYDQSYPSYLSQMTSPSIHSTTPLSSTRGTGLPAITDVPRRISDDDTATSDFCLWPSTLSKKSQAGASELGPFSDPRQFPSISSLTESRFSNPRMHYPATFTYTPPVTSGMSLGMSATTHYHTYLPPPYPGSSQSQSGPFQTSSTPYLYYGTSSGSYQFPMVPGGDRSPSRMLPPCTTTSNGSTLLNPNLPNQNDGVDADGSHSSSPTVLNSSGRMDESVWRPY
- effect on dedifferentiation brought about by the standard protocol [3]: increase the efficacy and penetrance of the dedifferentiation

B7: Lin-28: overexpressed factor, called miR in b196 and protein in b22 (protein, UniProt Q9H9Z2 2-209, looked up)
Protein lin-28 homolog A: GSVSNQQFAGGCAKAAEEAPEEAPEDAARAADEPQLLHGAGICKWFNVRMGFGFLSMTARAGVALDPPVDVFVHQSKLHMEGFRSLKEGEAVEFTFKKSAKGLESIRVTGPGGVFCIGSERRPKGKSMQKRRSKGDRCYNCGGLDHHAKECKLPPQPKKCHFCQSISHMVASCPLKAQQGPSAQGKPTYFREEEEEIHSPTLLPEAQN
- Sox2 expression over the basic protocol ([1]; overexpressed miR or polynucleotide inhibitor, FIG. 7B): improved
- self-renewal over the basic protocol ([2]; overexpressed miR or polynucleotide inhibitor, FIG. 7A): improved
